Results as given in PMC7327498, “Structural basis of semaphorin‐plexin cis interaction” (The EMBO Journal, 2020).

T1: Sema1b_(ecto)‐mutB (Drosophila melanogaster, UniProt Q7KK54 37-659, loop 350–367 was replaced with 18 alanine residues)
T1 sequence: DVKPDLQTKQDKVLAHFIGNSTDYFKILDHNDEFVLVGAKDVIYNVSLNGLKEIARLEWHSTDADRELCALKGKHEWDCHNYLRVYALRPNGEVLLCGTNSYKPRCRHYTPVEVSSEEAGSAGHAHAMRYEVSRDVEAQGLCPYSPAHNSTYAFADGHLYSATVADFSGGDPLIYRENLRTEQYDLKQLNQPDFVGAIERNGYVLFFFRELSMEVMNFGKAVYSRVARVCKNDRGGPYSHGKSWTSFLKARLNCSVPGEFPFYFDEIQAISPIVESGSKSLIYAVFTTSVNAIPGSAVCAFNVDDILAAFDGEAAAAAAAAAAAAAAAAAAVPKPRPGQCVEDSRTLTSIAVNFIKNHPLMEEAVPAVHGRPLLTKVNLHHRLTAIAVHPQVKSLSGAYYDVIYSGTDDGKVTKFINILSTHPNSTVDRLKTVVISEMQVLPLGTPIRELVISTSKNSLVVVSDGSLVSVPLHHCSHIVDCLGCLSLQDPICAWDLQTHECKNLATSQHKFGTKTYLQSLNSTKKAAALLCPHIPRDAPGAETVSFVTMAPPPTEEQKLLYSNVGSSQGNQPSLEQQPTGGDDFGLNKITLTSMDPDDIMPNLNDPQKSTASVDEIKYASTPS

T2: Sema1b_(ecto)‐mutA (Drosophila melanogaster, UniProt Q7KK54 37-659, F203E | Q219R | K223E)
T2 sequence: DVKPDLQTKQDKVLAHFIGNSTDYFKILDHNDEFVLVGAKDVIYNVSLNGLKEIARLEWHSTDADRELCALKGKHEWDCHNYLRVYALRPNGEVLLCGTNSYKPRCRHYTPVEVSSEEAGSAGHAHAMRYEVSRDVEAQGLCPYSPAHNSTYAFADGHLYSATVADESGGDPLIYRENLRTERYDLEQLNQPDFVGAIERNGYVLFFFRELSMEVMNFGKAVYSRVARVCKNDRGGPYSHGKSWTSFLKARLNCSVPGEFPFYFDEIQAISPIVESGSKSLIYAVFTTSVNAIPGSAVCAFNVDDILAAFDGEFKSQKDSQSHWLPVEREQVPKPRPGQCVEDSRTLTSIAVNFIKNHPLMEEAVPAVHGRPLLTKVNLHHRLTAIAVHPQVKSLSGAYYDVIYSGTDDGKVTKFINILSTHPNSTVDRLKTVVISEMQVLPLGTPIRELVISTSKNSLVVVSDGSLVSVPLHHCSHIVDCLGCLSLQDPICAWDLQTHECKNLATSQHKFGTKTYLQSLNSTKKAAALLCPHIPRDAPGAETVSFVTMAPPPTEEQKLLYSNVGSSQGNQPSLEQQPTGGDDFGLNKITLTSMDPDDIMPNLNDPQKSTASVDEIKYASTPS

T3: PlexA1‐4 (Drosophila melanogaster, UniProt Q9V491 28-730)
T3 construct: Plexin A (PlexA), Drosophila melanogaster, domains 1-4 (sema, PSI1, IPT1, PSI2), residues 28–730; also called PlexA domains 1-4; source: HEK 293T, transient transfection, purified (HisTrap, SEC); for crystallisation made with kifunensine, not deglycosylated
T3 sequence (looked up): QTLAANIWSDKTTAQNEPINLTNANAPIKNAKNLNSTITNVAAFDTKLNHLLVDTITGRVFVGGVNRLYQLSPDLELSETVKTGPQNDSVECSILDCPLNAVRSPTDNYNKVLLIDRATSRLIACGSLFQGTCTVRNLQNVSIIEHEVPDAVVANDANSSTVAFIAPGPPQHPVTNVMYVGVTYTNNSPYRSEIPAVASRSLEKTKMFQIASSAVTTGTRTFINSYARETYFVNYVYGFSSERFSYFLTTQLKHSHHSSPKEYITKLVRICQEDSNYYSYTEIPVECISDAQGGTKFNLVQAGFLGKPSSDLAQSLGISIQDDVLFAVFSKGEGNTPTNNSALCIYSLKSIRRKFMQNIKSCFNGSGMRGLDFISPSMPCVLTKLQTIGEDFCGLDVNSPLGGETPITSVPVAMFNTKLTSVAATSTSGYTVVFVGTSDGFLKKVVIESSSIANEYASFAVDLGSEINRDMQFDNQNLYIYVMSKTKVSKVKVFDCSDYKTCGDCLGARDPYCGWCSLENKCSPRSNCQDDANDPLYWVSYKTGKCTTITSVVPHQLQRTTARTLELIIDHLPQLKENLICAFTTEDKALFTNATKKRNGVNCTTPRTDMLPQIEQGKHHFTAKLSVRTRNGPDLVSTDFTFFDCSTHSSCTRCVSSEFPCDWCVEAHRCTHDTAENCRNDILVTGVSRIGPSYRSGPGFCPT

B1: PlexA1‐4‐mVenus (domain or fragment)
chain: T3 sequence (looked up)
B2: Sema1b1‐2 (domain or fragment, Drosophila melanogaster, UniProt Q7KK54 37-602, looked up)
chain: DVKPDLQTKQDKVLAHFIGNSTDYFKILDHNDEFVLVGAKDVIYNVSLNGLKEIARLEWHSTDADRELCALKGKHEWDCHNYLRVYALRPNGEVLLCGTNSYKPRCRHYTPVEVSSEEAGSAGHAHAMRYEVSRDVEAQGLCPYSPAHNSTYAFADGHLYSATVADFSGGDPLIYRENLRTEQYDLKQLNQPDFVGAIERNGYVLFFFRELSMEVMNFGKAVYSRVARVCKNDRGGPYSHGKSWTSFLKARLNCSVPGEFPFYFDEIQAISPIVESGSKSLIYAVFTTSVNAIPGSAVCAFNVDDILAAFDGEFKSQKDSQSHWLPVEREQVPKPRPGQCVEDSRTLTSIAVNFIKNHPLMEEAVPAVHGRPLLTKVNLHHRLTAIAVHPQVKSLSGAYYDVIYSGTDDGKVTKFINILSTHPNSTVDRLKTVVISEMQVLPLGTPIRELVISTSKNSLVVVSDGSLVSVPLHHCSHIVDCLGCLSLQDPICAWDLQTHECKNLATSQHKFGTKTYLQSLNSTKKAAALLCPHIPRDAPGAETVSFVTMAPPPTEEQKLLYSNVGS
notes: Semaphorin 1b (Sema1b), Drosophila melanogaster, domains 1-2 (sema, PSI), residues 37–602; also called Sema1b sema-PSI fragment; source: HEK 293T, transient transfection, purified (HisTrap, SEC); for crystallisation made with kifunensine and treated with endoglycosidase F1

Legend:
Sema1b_(ecto)‐mutB = target: T1, Sema1b_(ecto)‐mutB; test: MST
Sema1b_(ecto)‐mutA = target: T2, Sema1b_(ecto)‐mutA; test: MST
PlexA1‐4 = target: T3, PlexA1‐4; test: SEC-MALS; Superdex 200 10/300, 15 mM HEPES pH 7.8, 150 mM NaCl; single proteins injected at 2.0, 1.0 and 0.5 mg/ml; equimolar mixture of Sema1b1‐2 and PlexA1‐4; conditions: both partners purified

| Binder | Kd (Sema1b_(ecto)‐mutB) [nM] | Kd (Sema1b_(ecto)‐mutA) [nM] | stoichiometry N (PlexA1‐4) |
| --- | --- | --- | --- |
| B1 | 74 | 1240 |  |
| B2 |  |  | 1 |
